For test [1], the target named is T1, human serum albumin (Homo sapiens, UniProt P02768).
T1 construct: human serum albumin (HSA), purchased from Sigma-Aldrich Japan; dissolved in phosphate buffer and dialysed; also called HSA; source: bought: Sigma-Aldrich Japan
Kind of test: SPR; Biacore T200; HSA immobilised on CM5 chip by amine coupling (~1000 RU); increasing concentrations of antibodies injected at 30 μl/min; PBS with 0.05% Tween-20; global fit, 1:1 Langmuir model. The following applies: both partners purified. For orientation: In SPR one partner is held on a chip, and binding of the other changes the refractive index at the surface.

For test [2], the target named is T1, human serum albumin. Described as above. Conditions: both partners purified. This is another data set of the same source.

For orientation: Kd means the concentration at which binding is half-saturated. Higher therefore signals lower affinity. By koff is commonly meant the rate constant with which the complex falls apart. By kon is commonly meant a measure of how fast the partners come together. A higher kon goes with faster complex formation.

B1: single-domain VHH antibody Z18 (VHH)
VHH: QVQLVESGGGLVQAGDSLRLSCAASGRTFSGYAMGWFRQAPGKEREFVARINWSGTLTYYADSVKGRFTGSRDNAKNTVYLQMNSLKPEDTAVYYCAQRGDSGSNYDPSGYSYWGQGTQVTVSS
notes: pRA2 vector with N-terminal pelB signal peptide; also called wild-type Z18; source: E. coli BL21 (DE3), purified (Ni-NTA, SEC); not shown: hexa-histidine, C-terminal, kept
In the test with human serum albumin [1], B1 displayed a Kd of 175 nM. In the test with human serum albumin [2], the Kd stood at 334 nM, the koff came to 0.259 s⁻¹ and the kon worked out at 774000 M⁻¹ s⁻¹.

B2: Z18-T61L (VHH)
VHH: QVQLVESGGGLVQAGDSLRLSCAASGRTFSGYAMGWFRQAPGKEREFVARINWSGLLTYYADSVKGRFTGSRDNAKNTVYLQMNSLKPEDTAVYYCAQRGDSGSNYDPSGYSYWGQGTQVTVSS
notes: IMGT numbering; the methods describe vector and expression for Z18 and Z26; source: E. coli BL21 (DE3), purified (Ni-NTA, SEC)
With B2, in the test with human serum albumin [2], binding was put at a Kd of 8.63 nM, the koff was found to be 0.037 s⁻¹ and the kon amounted to 4.33e+06 M⁻¹ s⁻¹.

B3: Z18-V2L (VHH)
VHH: QLQLVESGGGLVQAGDSLRLSCAASGRTFSGYAMGWFRQAPGKEREFVARINWSGTLTYYADSVKGRFTGSRDNAKNTVYLQMNSLKPEDTAVYYCAQRGDSGSNYDPSGYSYWGQGTQVTVSS
notes: as for B2
In the test with human serum albumin [2], B3 gave a Kd of 366 nM, a dissociation rate constant (koff) of 0.276 s⁻¹ and a kon of 754000 M⁻¹ s⁻¹.

B4: Z18-G32D (VHH)
VHH: QVQLVESGGGLVQAGDSLRLSCAASGRTFSDYAMGWFRQAPGKEREFVARINWSGTLTYYADSVKGRFTGSRDNAKNTVYLQMNSLKPEDTAVYYCAQRGDSGSNYDPSGYSYWGQGTQVTVSS
notes: as for B2
B4: in the test with human serum albumin [2], the affinity, expressed as Kd, was 172 nM; the koff was 0.12 s⁻¹; the kon stood at 696000 M⁻¹ s⁻¹.

B5: single-domain VHH antibody Z26 (VHH)
VHH: QLQLVESGGGLVQAGDSLRLSCAASGRTFSDYAMGWFRQAPGKELEFVARVNWSGLLTYYADSVKGRFTASRDNAKSTVYLQMNSLKPEDTAVYYCAQRGDSGSNFDPSGYRYWGQGTQVTVSS
notes: differs from Z18 at nine residues; pRA2 vector with N-terminal pelB signal peptide; also called wild-type Z26; source: E. coli BL21 (DE3), purified (Ni-NTA, SEC); not shown: hexa-histidine, C-terminal, kept
Regarding B5, in the test with human serum albumin [2], the affinity, expressed as Kd, was 0.54 nM; the off-rate (koff) was found to be 0.000816 s⁻¹; the kon was found to be 1.51e+06 M⁻¹ s⁻¹.

B6: Z18-N85S (VHH)
VHH: QVQLVESGGGLVQAGDSLRLSCAASGRTFSGYAMGWFRQAPGKEREFVARINWSGTLTYYADSVKGRFTGSRDNAKSTVYLQMNSLKPEDTAVYYCAQRGDSGSNYDPSGYSYWGQGTQVTVSS
notes: as for B2
In the test with human serum albumin [2], B6 gave a Kd of 344 nM, a koff of 0.238 s⁻¹ and a kon of 692000 M⁻¹ s⁻¹.

B7: Z18-Y114F (VHH)
VHH: QVQLVESGGGLVQAGDSLRLSCAASGRTFSGYAMGWFRQAPGKEREFVARINWSGTLTYYADSVKGRFTGSRDNAKNTVYLQMNSLKPEDTAVYYCAQRGDSGSNFDPSGYSYWGQGTQVTVSS
notes: as for B2
As for B7, in the test with human serum albumin [2], the dissociation constant Kd was determined as 12.9 nM, the off-rate (koff) was determined as 0.096 s⁻¹ and the kon turned out to be 7.45e+06 M⁻¹ s⁻¹.

B8: Z18-G78A (VHH)
VHH: QVQLVESGGGLVQAGDSLRLSCAASGRTFSGYAMGWFRQAPGKEREFVARINWSGTLTYYADSVKGRFTASRDNAKNTVYLQMNSLKPEDTAVYYCAQRGDSGSNYDPSGYSYWGQGTQVTVSS
notes: as for B2
In the case of B8, in the test with human serum albumin [2], the Kd stood at 7110 nM, the dissociation rate constant (koff) came out at 1.1 s⁻¹ and the association rate constant (kon) turned out to be 155000 M⁻¹ s⁻¹.

B9: Z18-R50L/G78A/S133R (VHH)
VHH: QVQLVESGGGLVQAGDSLRLSCAASGRTFSGYAMGWFRQAPGKELEFVARINWSGTLTYYADSVKGRFTASRDNAKNTVYLQMNSLKPEDTAVYYCAQRGDSGSNYDPSGYRYWGQGTQVTVSS
notes: as for B2
For B9, in the test with human serum albumin [2], the Kd amounted to 447 nM, the koff amounted to 0.785 s⁻¹ and the on-rate (kon) was determined as 1.76e+06 M⁻¹ s⁻¹.

B10: Z18-G32D/R50L/G78A/S133R (VHH)
VHH: QVQLVESGGGLVQAGDSLRLSCAASGRTFSDYAMGWFRQAPGKELEFVARINWSGTLTYYADSVKGRFTASRDNAKNTVYLQMNSLKPEDTAVYYCAQRGDSGSNYDPSGYRYWGQGTQVTVSS
notes: as for B2
In the test with human serum albumin [2], B10 registered a Kd of 797 nM, a koff of 0.412 s⁻¹ and an on-rate (kon) of 516000 M⁻¹ s⁻¹.

B11: Z18-R50L (VHH)
VHH: QVQLVESGGGLVQAGDSLRLSCAASGRTFSGYAMGWFRQAPGKELEFVARINWSGTLTYYADSVKGRFTGSRDNAKNTVYLQMNSLKPEDTAVYYCAQRGDSGSNYDPSGYSYWGQGTQVTVSS
notes: as for B2
In the test with human serum albumin [2], B11 returned a dissociation constant Kd of 412 nM, an off-rate (koff) of 0.284 s⁻¹ and a kon of 689000 M⁻¹ s⁻¹.

B12: Z18-I56V (VHH)
VHH: QVQLVESGGGLVQAGDSLRLSCAASGRTFSGYAMGWFRQAPGKEREFVARVNWSGTLTYYADSVKGRFTGSRDNAKNTVYLQMNSLKPEDTAVYYCAQRGDSGSNYDPSGYSYWGQGTQVTVSS
notes: as for B2
In the test with human serum albumin [2], B12 came in with a Kd of 296 nM, an off-rate constant (koff) of 0.22 s⁻¹ and a kon of 741000 M⁻¹ s⁻¹.

B13: Z18-S133R (VHH)
VHH: QVQLVESGGGLVQAGDSLRLSCAASGRTFSGYAMGWFRQAPGKEREFVARINWSGTLTYYADSVKGRFTGSRDNAKNTVYLQMNSLKPEDTAVYYCAQRGDSGSNYDPSGYRYWGQGTQVTVSS
notes: as for B2
B13: in the test with human serum albumin [2], the equilibrium dissociation constant (Kd) was 67.2 nM, the koff turned out to be 0.078 s⁻¹ and the kon came out at 1.16e+06 M⁻¹ s⁻¹.

The values above are taken from paper PMC8523659 (Scientific Reports, 2021).
